From EP2479185A1 (INSTITUT PASTEUR, dated 2012)

Experiments:
[1] = target: the molecule itself; assay: SDS-PAGE and MALDI-TOF MS of purified VAPs (self-assembly)
[2] = target: the molecule itself; assay: heterologous expression in E. coli and electron microscopy of thin sections (self-assembly)

B1: P98 protein of Sulfolobus islandicus rod-shaped virus 2 (SIRV2) (other)
chain: MAITLLEGALYGFFAVTGILVGSFVVGEIVHLYNEKQNNENFAKAVDQMSKSTVIAVESIKDTTTTAINALLNMDTLRDVNALAREKAKDQNPNTQAK
notes: Assayed as assembled VAPs (homomultimeric pyramids) from SIRV2-infected S. islandicus; Also used here for P98 expressed from pSVA1059 in S. acidocaldarius, for which no tag is stated; The number of monomers per VAP was not measured; also called SIRV2-P98; protein 98
- binding result [1]: binds

B2: recombinant C-terminal his-tagged P98 expressed in E. coli Rosetta(DE3)pLys from pSVA1051 (other)
chain: B1 chain
notes: Found primarily in the E. coli membrane fraction, where it forms closed VAPs on the inner membrane; also called recombinant P98; E. coli 1051 expressing SIRV2-ORF98; not shown: C-terminal his tag
- binding result [2]: binds
